The record followed here is US20250011363A1, “OPTIMIZED SHORTENED PEPTIDE THAT BINDS TO ACETYLCHOLINE RECEPTOR, AND USE THEREOF” (SKINMED CO., LTD., priority 2021, published 2025).

Test [1] has as its target acetylcholine receptor. The test is described as follows: SPR, receptor on CM5 chip, peptide 10 µM.
In test [2] the target is acetylcholine receptor. The test is described as follows: SPR, AchR immobilized on CM5 chip, peptide 10 uM.

For the molecule KRRQSR [6mer-1-510], in test [1], the Binding affinity (RU) was found to be 122 RU.

RKQQQR [6mer-1-341] had a Binding affinity (RU) in test [2] of 128 RU.

Turning to KKLYTK [6mer-1-343], the Binding affinity (RU) in test [2] worked out at 135 RU.

Consider RRRFTR [6mer-1-505], for which the Binding affinity (RU) in test [1] turned out to be 148 RU.

In the case of KRRQCK [6mer-1-519], the Binding affinity (RU) in test [1] is 147 RU.

As for RKVYRR [6mer-1-511], the Binding affinity (RU) in test [1] was determined as 136 RU.

In test [1], RRWRQK [6mer-1-492] displayed a Binding affinity (RU) of 139 RU.

On to KRLLCK [6mer-1-340], for which the Binding affinity (RU) in test [2] turned out to be 142 RU.

As to KKWYSK [6mer-1-488], the Binding affinity (RU) in test [1] was found to be 135 RU.

Molecule RKRRLR [6mer-1-522] returned a Binding affinity (RU) in test [1] of 126 RU.

Molecule RRWYRR [6mer-1-485] registered a Binding affinity (RU) in test [1] of 126 RU.

In test [1], RRSLCK [6mer-1-529] yielded a Binding affinity (RU) of 139 RU.

Regarding KRLYSK [6mer-1-349], the Binding affinity (RU) in test [2] is 123 RU.

Molecule KRSYTR [6mer-1-528] gave a Binding affinity (RU) in test [1] of 139 RU.

In the case of KKLFSR [6mer-1-494], the Binding affinity (RU) in test [1] worked out at 128 RU.

As to RKLQSK [6mer-1-500], the Binding affinity (RU) in test [1] is 151 RU.

RKWFSR [6mer-1-533] displayed a Binding affinity (RU) in test [1] of 145 RU.

As to KKRFSR [6mer-1-516], in test [1], the Binding affinity (RU) turned out to be 139 RU.

For the molecule KKLLCR [6mer-1-345], the Binding affinity (RU) in test [2] stood at 147 RU.

Take RKWLRK [6mer-1-509]: the Binding affinity (RU) in test [1] was 128 RU.

For RKSRRR [6mer-1-337], the Binding affinity (RU) in test [2] was found to be 144 RU.

KKRLCR [6mer-1-534] registered a Binding affinity (RU) in test [1] of 126 RU.

Regarding RKVISR [6mer-1-521], the Binding affinity (RU) in test [1] was 128 RU.

KKSIQK [6mer-1-339] gave a Binding affinity (RU) in test [2] of 147 RU.

For the molecule KRQIYK [6mer-1-520], in test [1], the Binding affinity (RU) was determined as 127 RU.

KKLQTK [6mer-1-350] yielded a Binding affinity (RU) in test [2] of 153 RU.

KKSQLR [6mer-1-532]: the Binding affinity (RU) in test [1] came to 121 RU.

RKWICK [6mer-1-512] had a Binding affinity (RU) in test [1] of 154 RU.

Take KKQVLK [6mer-1-338]: the Binding affinity (RU) in test [2] was determined as 127 RU.

As for KRRRSK [6mer-1-523], the Binding affinity (RU) in test [1] is 139 RU.

For RRSITR [6mer-1-504], the Binding affinity (RU) in test [1] was determined as 122 RU.

Consider KKGLCK [6mer-1-517], for which, in test [1], the Binding affinity (RU) turned out to be 139 RU.

Turning to RKLRLR [6mer-1-491], the Binding affinity (RU) in test [1] was determined as 137 RU.

For RKQVRK [6mer-1-482], the Binding affinity (RU) in test [1] came to 133 RU.

On to RKRFCR [6mer-1-342], for which the Binding affinity (RU) in test [2] was 131 RU.

Turning to KKGRQK [6mer-1-524], the Binding affinity (RU) in test [1] came to 148 RU.

In the case of KRQVRK [6mer-1-486], the Binding affinity (RU) in test [1] is 151 RU.

In the case of RRRLSK [6mer-1-506], in test [1], the Binding affinity (RU) was 151 RU.

The molecule KKLFRR [6mer-1-490] displayed a Binding affinity (RU) in test [1] of 133 RU.

KKRIYR [6mer-1-346] yielded a Binding affinity (RU) in test [2] of 123 RU.

RRQLRR [6mer-1-525] came in with a Binding affinity (RU) in test [1] of 139 RU.

As to RKQRLK [6mer-1-348], the Binding affinity (RU) in test [2] came out at 142 RU.

In test [1], KKLYLR [6mer-1-484] showed a Binding affinity (RU) of 154 RU.

In test [1], RKRQQK [6mer-1-498] showed a Binding affinity (RU) of 139 RU.

Molecule KRWVLK [6mer-1-518] had a Binding affinity (RU) in test [1] of 153 RU.

RKGQTK [6mer-1-531] had a Binding affinity (RU) in test [1] of 135 RU.

RKGFQR [6mer-1-495]: the Binding affinity (RU) in test [1] is 126 RU.

In the case of RRSQSK [6mer-1-507], the Binding affinity (RU) in test [1] was 139 RU.

In test [1], RKQIRR [6mer-1-513] had a Binding affinity (RU) of 154 RU.

In the case of KRRQLR [6mer-1-497], the Binding affinity (RU) in test [1] turned out to be 133 RU.

With KRRLCK [6mer-1-503], the Binding affinity (RU) in test [1] is 151 RU.

RKLFSR [6mer-1-502] showed a Binding affinity (RU) in test [1] of 146 RU.

RKLFYR [6mer-1-499] registered a Binding affinity (RU) in test [1] of 149 RU.

RRSQRR [6mer-1-335] showed a Binding affinity (RU) in test [2] of 148 RU.

KRQVTK [6mer-1-483] registered a Binding affinity (RU) in test [1] of 151 RU.

On to KRGYTR [6mer-1-526], for which the Binding affinity (RU) in test [1] turned out to be 148 RU.

The molecule KKQQSK [6mer-1-347] gave a Binding affinity (RU) in test [2] of 126 RU.

For RRVYQR [6mer-1-496], in test [1], the Binding affinity (RU) was found to be 148 RU.

Turning to KRVVTK [6mer-1-336], the Binding affinity (RU) in test [2] is 154 RU.

For the molecule RRGLSR [6mer-1-515], the Binding affinity (RU) in test [1] stood at 139 RU.

On to KKSQCR [6mer-1-344], for which the Binding affinity (RU) in test [2] turned out to be 125 RU.

For KKVITK [6mer-1-489], the Binding affinity (RU) in test [1] is 148 RU.

In test [1], KKGRSK [6mer-1-514] had a Binding affinity (RU) of 128 RU.

On to RRGLRK [6mer-1-351], for which, in test [2], the Binding affinity (RU) is 141 RU.

Molecule RKGRRK [6mer-1-487] displayed a Binding affinity (RU) in test [1] of 121 RU.

With RRQFSK [6mer-1-508], in test [1], the Binding affinity (RU) came to 135 RU.

In test [1], KRLVSK [6mer-1-530] displayed a Binding affinity (RU) of 137 RU.

Molecule KRWRCK [6mer-1-481] returned a Binding affinity (RU) in test [1] of 133 RU.

In test [1], KKGIYR [6mer-1-527] yielded a Binding affinity (RU) of 142 RU.

For the molecule KRGYLR [6mer-1-493], in test [1], the Binding affinity (RU) is 131 RU.

On to KRVLYK [6mer-1-501], for which the Binding affinity (RU) in test [1] was 154 RU.
